# Data published in paper PMC3396760.
# Assay: in-culture cell surface labelling with cell-impermeable BG-682
# Conditions: glycan lost; control: wild type SNAP-Crb3a
protein,measurement,value
Crumbs3a (Crb3a): N36D (protein) parent chain: MANPGLGLLLALGLPFLLARWGRAWGQIQTTSANENSTVLPSSTSSSSDGNLRPEAITAIIVVFSLLAALLLAVGLALLVRKLREKRQTEGTYRPSSEEQVGARVPPTPNLKLPPEERLI,localisation_or_trafficking,no change
